Assay results from ChEMBL document CHEMBL2074562, “Substrate specificity of the rat liver Na(+)-bile salt cotransporter in Xenopus laevis oocytes and in CHO cells” (Am J Physiol, 1998).

Columns and labels:
Format in all cases: functional, cell-based
[1] = substrate: C[C@H](CCC(=O)NCC(=O)O)[C@H]1CC[C@H]2[C@@H]3[C@H](O)C[C@@H]4C[C@H](O)CC[C@]4(C)[C@H]3C[C@H](O)[C@]12C; test: (§1) TP_TRANSPORTER: uptake in Ntcp-expressing CHO cells
[2] = substrate: C[C@H](CCC(=O)NCCS(=O)(=O)O)[C@H]1CC[C@H]2[C@@H]3[C@H](O)C[C@@H]4C[C@H](O)CC[C@]4(C)[C@H]3CC[C@]12C; test: as §1
[3] = substrate: C[C@]12CC[C@@H]3c4ccc(OS(=O)(=O)O)cc4CC[C@H]3[C@@H]1CCC2=O; test: as §1

B1: Hepatic sodium/bile acid cotransporter (Rattus norvegicus) (protein)
chain: MEVHNVSAPFNFSLPPGFGHRATDKALSIILVLMLLLIMLSLGCTMEFSKIKAHLWKPKGVIVALVAQFGIMPLAAFLLGKIFHLSNIEALAILICGCSPGGNLSNLFTLAMKGDMNLSIVMTTCSSFSALGMMPLLLYVYSKGIYDGDLKDKVPYKGIMISLVIVLIPCTIGIVLKSKRPHYVPYILKGGMIITFLLSVAVTALSVINVGNSIMFVMTPHLLATSSLMPFSGFLMGYILSALFQLNPSCRRTISMETGFQNIQLCSTILNVTFPPEVIGPLFFFPLLYMIFQLAEGLLIIIIFRCYEKIKPPKDQTKITYKAAATEDATPAALEKGTHNGNIPPLQPGPSPNGLNSGQMAN
B1 was tested, and the Km [1] was 27 µM, the Km [2] was 5 µM and the Km [3] was 27 µM.
